According to publication doi:10.1101/800169 (bioRxiv, 2019):

T1: EccC3 (M. smegmatis (endogenous in M. …, UniProt A0QQ40 1-1325))
T1 sequence: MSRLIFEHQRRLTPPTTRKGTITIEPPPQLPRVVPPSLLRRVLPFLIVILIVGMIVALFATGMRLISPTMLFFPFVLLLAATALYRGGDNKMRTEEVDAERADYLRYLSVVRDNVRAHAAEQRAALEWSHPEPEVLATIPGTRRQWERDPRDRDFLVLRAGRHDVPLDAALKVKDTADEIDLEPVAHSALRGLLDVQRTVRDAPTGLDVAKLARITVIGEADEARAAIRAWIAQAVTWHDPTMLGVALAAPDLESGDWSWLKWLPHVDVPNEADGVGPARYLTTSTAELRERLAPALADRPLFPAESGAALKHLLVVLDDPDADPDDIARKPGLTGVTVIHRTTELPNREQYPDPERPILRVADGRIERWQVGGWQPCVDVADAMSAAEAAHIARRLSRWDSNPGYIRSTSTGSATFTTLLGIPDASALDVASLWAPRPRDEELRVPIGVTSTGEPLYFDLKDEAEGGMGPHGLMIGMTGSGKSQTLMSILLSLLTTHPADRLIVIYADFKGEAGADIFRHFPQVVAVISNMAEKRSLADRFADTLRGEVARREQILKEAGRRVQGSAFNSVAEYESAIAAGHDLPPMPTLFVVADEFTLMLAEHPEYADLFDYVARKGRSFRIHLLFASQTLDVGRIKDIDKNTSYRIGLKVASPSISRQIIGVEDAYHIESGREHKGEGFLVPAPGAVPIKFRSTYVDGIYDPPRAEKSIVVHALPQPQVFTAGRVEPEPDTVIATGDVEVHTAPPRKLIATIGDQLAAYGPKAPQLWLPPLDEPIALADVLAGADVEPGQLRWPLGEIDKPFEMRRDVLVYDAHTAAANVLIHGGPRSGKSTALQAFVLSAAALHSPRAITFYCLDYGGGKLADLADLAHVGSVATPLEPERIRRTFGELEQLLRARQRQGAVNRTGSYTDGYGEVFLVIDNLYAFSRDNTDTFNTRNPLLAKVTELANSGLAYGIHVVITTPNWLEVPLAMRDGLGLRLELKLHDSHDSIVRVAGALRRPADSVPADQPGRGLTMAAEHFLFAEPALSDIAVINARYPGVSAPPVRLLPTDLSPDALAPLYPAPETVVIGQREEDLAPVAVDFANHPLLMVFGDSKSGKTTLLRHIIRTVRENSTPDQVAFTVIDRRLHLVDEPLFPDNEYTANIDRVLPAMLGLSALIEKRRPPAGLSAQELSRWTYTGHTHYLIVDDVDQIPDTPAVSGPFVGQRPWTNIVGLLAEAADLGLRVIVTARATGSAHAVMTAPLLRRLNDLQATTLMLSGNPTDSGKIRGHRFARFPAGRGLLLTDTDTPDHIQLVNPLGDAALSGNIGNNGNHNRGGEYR

B1: EccD3 (natural protein)
chain: MSENTVMPIVRVAVLAAGDDGGRLTEMALPSELPLREILPAVQRIVQPARENDGAADPAAAPNPVRLSLAPIGGAPFSLDATLDTVGVVDGDLLALQAVPSGPPAPRIVEDIADAAVIFSEARRRQWGPTHIARGAALALIGLILVGTGLSVAHRVITGDLLGQFIVSGIALATVIAALAVRNRSAVLATSLAVTALVPVAAAFALGVPGDFGAPNVLLAAAGVAAWSLISMAGSPDDRGIAVFTATAVTGVGVLLVAGAASLWVISSDVIGCALVLLGLIVTVQAAQLSAMWARFPLPVIPAPGDPTPAARPLSVLADLPRRVRVSQAHQTGVIAAGVLLGVAGSVALVSSANASPWAWYIVVAAAAGAALRARVWDSAACKAWLLGHSYLLAVALLVAFVIGDRYQAALWALAALAVLVLVWIVAALNPKIASPDTYSLPMRRMVGFLATGLDASLIPVMALLVGLFSLVLDR
B2: EccE3 (natural protein)
chain: MTARIALASLFVVAAVLAQPWQTTTQRWVLGVSIAAVIVLLAWWKGMFLTTRIGRALAMVRRNRAEDTVETDAHRATVVLRVDPAAPAQLPVVVGYLDRYGITCDKVRITHRDAGGTRRSWISLTVDAVDNLAALQARSARIPLQDTTEVVGRRLADHLREQGWTVTVVEGVDTPLPVSGKETWRGVADDAGVVAAYRVKVDDRLDEVLAEIGHLPAEETWTALEFTGSPAEPLLTVCAAVRTSDRPAAKAPLAGLTPARGRHRPALAALNPLSTERLDGTAVPLPAVVRTSVKGSVEHEAAQEAGHPA
B3: EccB3 (natural protein)
chain: MTGPVNPDDRRSFSSRTPVNENPDGVQYRRGFVTRHQVSGWRFVMRRIASGVALHDTRMLVDPLRTQSRAVLTGALILVTGLVGCFIFSLFRPGGVPGNNAILADRSTSALYVRVGEQLHPVLNLTSARLISGSPDNPTMVKTSEIDKFPRGNLLGIPGAPERMVQNAATDAEWTVCDAVGGANPGVTVIAGPLGADGERAAPLPPDHAVLVHSDAEPNPGDWLLWDGKRSPIDLADRAVTDALGLGGQALAPRPIAAGLFNAVPAAPALTAPVIPDAGAAPQFELSLPVPVGAVVVAYDADNTARYYAVLSDGLQPISPVLAAILRNTDSHGFAQPPRLGPDEVARTPMSRGLDTSAYPDNPVTLVEASAHPVTCAHWTKPSDAAESSLSVLSGAVLPLAEGLHTVDLVGAGAGGAANRVALTPGTGYFVQTVGAEPGSPTAGSMFWVSDTGVRYGIDTAEDDKVVAALGLSTSPLPVPWSVLSQFAAGPALSRGDALVAHDAVSTNPNSARMEASR

Experiments:
Assay in all cases: cryo-EM structure
EccC3 = molecular target: T1, EccC3
EccB3 = molecular target: B3
cryo-EM structure = molecular target: the molecule itself
EccD3 = molecular target: B1

Binder	binding result (EccC3)	binding result (EccB3)	stoichiometry N (cryo-EM structure)	binding result (EccD3)	binding result (cryo-EM structure)
B1	binds	binds	2		
B2				binds	
B3	binds				binds
